Measured values: patent publication US20250382344A1, “Soluble GLP1/GIP/NPY2 Receptor Triple Agonists” (Boehringer Ingelheim International GmH, priority 2024, published 2025)
Numbering of substitutions follows the chain as printed. *1 amine or outer side, *2 acyl side, *3 side chain or, on linkers, in order; H or OH if unused. Where no end group is shown, it is not given here. Side-chain parts run from the residue outwards. [ ]: non-standard residue; d: D form. The star is where a group is joined. C20 diacid = O=C(O)CCCCCCCCCCCCCCCCCCC(=O)*; C18 diacid = O=C(O)CCCCCCCCCCCCCCCCC(=O)*; γGlu = O=C(O)[C@H](CCC(=O)[*:2])N[*:1]; εLys = N[C@@H](CCCCN[*:1])C(=O)[*:2]; AEEA = NCCOCCOCC(=O)O; Aib = CC(C)(N)C(=O)O

T1: human GIP receptor (human, UniProt P48546 22-466)
T1 sequence (looked up): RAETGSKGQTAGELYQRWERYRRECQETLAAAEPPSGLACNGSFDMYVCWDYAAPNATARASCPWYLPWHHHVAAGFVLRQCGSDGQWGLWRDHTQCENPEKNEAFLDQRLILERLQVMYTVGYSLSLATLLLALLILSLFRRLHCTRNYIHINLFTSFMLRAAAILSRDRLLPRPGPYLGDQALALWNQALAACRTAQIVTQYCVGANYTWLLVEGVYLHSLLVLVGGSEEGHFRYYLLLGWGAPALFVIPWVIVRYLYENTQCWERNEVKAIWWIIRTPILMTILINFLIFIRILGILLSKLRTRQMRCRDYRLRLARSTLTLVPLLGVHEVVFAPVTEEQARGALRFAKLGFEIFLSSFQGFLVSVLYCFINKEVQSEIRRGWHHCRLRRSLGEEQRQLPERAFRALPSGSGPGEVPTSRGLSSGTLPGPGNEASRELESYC

T2: human neuropeptide Y2 receptor (human, UniProt P49146 1-381)
T2 sequence (looked up): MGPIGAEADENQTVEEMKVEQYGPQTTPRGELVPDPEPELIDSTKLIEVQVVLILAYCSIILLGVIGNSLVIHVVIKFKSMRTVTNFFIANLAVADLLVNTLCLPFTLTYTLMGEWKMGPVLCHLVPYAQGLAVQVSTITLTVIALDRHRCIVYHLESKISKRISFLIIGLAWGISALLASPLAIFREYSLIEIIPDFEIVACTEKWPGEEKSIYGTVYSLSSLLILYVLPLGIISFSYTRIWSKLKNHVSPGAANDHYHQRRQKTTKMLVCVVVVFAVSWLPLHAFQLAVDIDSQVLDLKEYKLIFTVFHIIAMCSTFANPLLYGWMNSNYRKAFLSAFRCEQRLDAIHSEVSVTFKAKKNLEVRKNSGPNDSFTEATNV

T3: human GIP receptor (human, UniProt P48546 22-466)
T3 sequence (looked up): T1 sequence (looked up)

T4: human neuropeptide Y2 receptor (human, UniProt P49146 1-381)
T4 sequence (looked up): T2 sequence (looked up)

B1: Compound 70 (peptide)
peptide: Y[Aib]EGTFTSDYSI[Aib]LDQQAQ[Aib]AFVRHLINK([εLys-γGlu-γGlu-γGlu-γGlu-γGlu-C18 diacid])[Aib]TRQRY-NH2
B2: Compound 21 (peptide)
peptide: YXEGTFTSDLSIXLEKQAQXAFIRHLINKXTRQRY
modifications: Aib at 2, 13, 20, 30; Lys29 epsilon-amino acylated with C20DA-gGlu-gGlu-gGlu-gGlu-gGlu-gGlu-eLys; C-terminal amide
B3: Compound 33 (peptide)
peptide: B2 peptide with L10Y, E15D, Q17I, I23V
modifications: Aib at 2, 13, 20, 30; Lys29 epsilon-amino acylated with C18DA-gGlu-gGlu-gGlu-gGlu-gGlu-gGlu-eLys; C-terminal amide
B4: Compound 72 (peptide)
peptide: B2 peptide with L10Y, I23V
modifications: Aib at 2, 13, 20, 30; ArgMe at 34; Lys29 epsilon-amino acylated with C18DA-gGlu-gGlu-gGlu-gGlu-gGlu-gGlu-eLys; C-terminal amide
B5: Compound 85 (peptide)
peptide: B2 peptide with T5A, L10Y, I23V
modifications: Aib at 2, 13, 20, 30; Lys29 epsilon-amino acylated with C18DA-gGlu-gGlu-gGlu-gGlu-gGlu-gGlu-eLys; C-terminal amide
B6: Compound 54 (peptide)
peptide: B2 peptide with T5E, L10Y, I23V
modifications: Aib at 2, 13, 20, 30; Lys29 epsilon-amino acylated with C18DA-gGlu-gGlu-gGlu-gGlu-gGlu-gGlu-eLys; C-terminal amide
B7: Compound 7 (peptide)
peptide: B2 peptide with L10Y, I23V, X30L
modifications: Aib at 2, 13, 20; Lys29 epsilon-amino acylated with C18DA-gGlu-gGlu-gGlu-gGlu-gGlu-OEG; C-terminal amide
B8: Compound 42 (peptide)
peptide: B2 peptide with L10Y, K16Q, I23V
modifications: Aib at 2, 13, 20, 30; Lys29 epsilon-amino acylated with C18DA-gGlu-gGlu-gGlu-gGlu-gGlu; C-terminal amide
B9: Compound 22 (peptide)
peptide: B2 peptide with L10Y, E15D
modifications: Aib at 2, 20, 30; aMeL at 13; Lys29 epsilon-amino acylated with C20DA-gGlu-gGlu-gGlu-gGlu-gGlu-gGlu-eLys; C-terminal amide
B10: Compound 52 (peptide)
peptide: Y[Aib]EGTFTSDYSI[Aib]LEKQAQ[Aib]AFVRHLINK([γGlu-γGlu-εLys-γGlu-γGlu-γGlu-γGlu-C20 diacid])[Aib]TRQRY-NH2
B11: Compound 56 (peptide)
peptide: Y[Aib]EGTFTSDYSI[Aib]LEKQAQ[Aib]EFVRHLINK([γGlu-γGlu-γGlu-γGlu-γGlu-γGlu-C18 diacid])[Aib]TRQRY-NH2
B12: Compound 25 (peptide)
peptide: Y[Aib]EGTFTSDYSI[Aib]LEEEAQ[Aib]AFVRHLINK([γGlu-γGlu-γGlu-γGlu-C18 diacid])[Aib]TRQRY-NH2
B13: Compound 51 (peptide)
peptide: Y[Aib]EGTFTSDLSI[Aib]LEKQAQ[Aib]AFVRHLINK([γGlu-γGlu-γGlu-γGlu-γGlu-γGlu-C20 diacid])[Aib]TRQRY-NH2
B14: Compound 59 (peptide)
peptide: Y[Aib]EGTFTSDYSI[Aib]LEKQAQ[Aib]AFVRHLINK([εLys-γGlu-γGlu-γGlu-γGlu-γGlu-C20 diacid])[Aib]TRQRY-NH2
B15: Compound 77 (peptide)
peptide: Y[Aib]EGTFTSDYSI[Aib]LEKQAQ[Aib]AFVRHLINK([γGlu-γGlu-γGlu-γGlu-C18 diacid])[Aib]TRQRY-NH2
B16: Compound 48 (peptide)
peptide: Y[Aib]EGTFTSDYSI[Aib]LEEQAQ[Aib]AFVRHLINK([εLys-γGlu-γGlu-γGlu-γGlu-γGlu-C18 diacid])[Aib]TRQRY-NH2
B17: Compound 29 (peptide)
peptide: Y[Aib]EGTFTSDYSIALEKQAQ[Aib]AFVRHLINK([γGlu-γGlu-γGlu-γGlu-γGlu-γGlu-C20 diacid])[Aib]TRQRY-NH2
B18: Compound 137 (peptide)
peptide: B2 peptide with L10Y, I23V
modifications: Aib at 2, 13, 20, 30; Lys29 epsilon-amino: C18DA-TRX-gGlu-gGlu-gGlu-gGlu-gGlu-gGlu-eLys; C-terminal amide
B19: Compound 147 (peptide)
peptide: B2 peptide with L10Y, E15D, K16R, I23V
modifications: Aib at 2, 13, 20, 30; Lys29 epsilon-amino: C18DA-gGlu-gGlu-gGlu-gGlu-gGlu-gGlu-eLys; C-terminal amide
B20: Compound 156 (peptide)
peptide: B2 peptide with L10Y, I12A, I23V
modifications: Aib at 2, 13, 20, 30; Lys29 epsilon-amino: C18DA-gGlu-gGlu-gGlu-gGlu-gGlu-gGlu-eLys; C-terminal amide
B21: Compound 130 (peptide)
peptide: Y[Aib]EGTFTSDYSI[Aib]LEEEAQ[Aib]EFVRHLINK([AEEA-AEEA-γGlu-C18 diacid])[Aib]TRQRY-NH2
modifications: N-terminus assumed
SMILES: CC[C@H](C)[C@H](NC(=O)[C@H](CC(C)C)NC(=O)[C@H](Cc1c[nH]cn1)NC(=O)[C@H](CCCNC(=N)N)NC(=O)[C@@H](NC(=O)[C@H](Cc1ccccc1)NC(=O)[C@H](CCC(=O)O)NC(=O)C(C)(C)NC(=O)[C@H](CCC(N)=O)NC(=O)[C@H](C)NC(=O)[C@H](CCC(=O)O)NC(=O)[C@H](CCC(=O)O)NC(=O)[C@H](CCC(=O)O)NC(=O)[C@H](CC(C)C)NC(=O)C(C)(C)NC(=O)[C@@H](NC(=O)[C@H](CO)NC(=O)[C@H](Cc1ccc(O)cc1)NC(=O)[C@H](CC(=O)O)NC(=O)[C@H](CO)NC(=O)[C@@H](NC(=O)[C@H](Cc1ccccc1)NC(=O)[C@@H](NC(=O)CNC(=O)[C@H](CCC(=O)O)NC(=O)C(C)(C)NC(=O)[C@@H](N)Cc1ccc(O)cc1)[C@@H](C)O)[C@@H](C)O)[C@@H](C)CC)C(C)C)C(=O)N[C@@H](CC(N)=O)C(=O)N[C@@H](CCCCNC(=O)COCCOCCNC(=O)COCCOCCNC(=O)CC[C@H](NC(=O)CCCCCCCCCCCCCCCCC(=O)O)C(=O)O)C(=O)NC(C)(C)C(=O)N[C@H](C(=O)N[C@@H](CCCNC(=N)N)C(=O)N[C@@H](CCC(N)=O)C(=O)N[C@@H](CCCNC(=N)N)C(=O)N[C@@H](Cc1ccc(O)cc1)C(N)=O)[C@@H](C)O

What follows are binders tested against human GLP-1 receptor (human, UniProt P43220 24-463) (assay: cell-based or functional assay).

| Binder | EC50, CreLuc reporter, 0.5% hP | EC50, CreLuc reporter, 100% hP |
| --- | --- | --- |
| B1 | 0.2 nM | – |
| B2 | 4.8 nM | 13.9 nM |
| B3 | 0.1 nM | 1 nM |
| B4 | 0.6 nM | – |
| B5 | 10.4 nM | 14.5 nM |
| B6 | 3.4 nM | 14.4 nM |
| B7 | – | 7.9 nM |
| B8 | 0.9 nM | 14.5 nM |
| B9 | 0.2 nM | 0.6 nM |
| B10 | 3.3 nM | – |
| B11 | – | 7.1 nM |
| B12 | 0.7 nM | 2 nM |
| B13 | 4.5 nM | 16.3 nM |
| B14 | – | 16.7 nM |
| B15 | – | 1.8 nM |
| B16 | 0.5 nM | – |
| B17 | 5.5 nM | 33 nM |

What follows are binders tested against T1, human GIP receptor (assay: cell-based or functional assay).

| Binder | EC50, CreLuc reporter, 0.5% hP | EC50, CreLuc reporter, 100% hP |
| --- | --- | --- |
| B2 | 0.2 nM | 5.6 nM |
| B3 | 0.7 nM | 18.7 nM |
| B9 | 0.1 nM | – |
| B11 | 0.4 nM | 19.3 nM |
| B13 | 0.5 nM | 13.8 nM |

The binders below were run against T2, human neuropeptide Y2 receptor (assay: cell-based or functional assay).

| Binder | EC50, CreLuc reporter, 0.5% hP | EC50, CreLuc reporter, 100% hP |
| --- | --- | --- |
| B1 | 12.8 nM | 119 nM |
| B2 | 6.5 nM | 111 nM |
| B5 | – | 16.2 nM |
| B6 | – | 38.3 nM |
| B7 | 12.4 nM | 80.6 nM |
| B8 | 81.4 nM | 704 nM |
| B9 | 8.8 nM | 72 nM |
| B10 | – | 152 nM |
| B12 | 89.2 nM | 437 nM |
| B14 | 5.7 nM | – |
| B16 | 11.6 nM | 77.2 nM |
| B17 | 41.3 nM | 180 nM |

Biological target: human GLP-1 receptor (human, UniProt P43220 24-463)
Test: cell-based or functional assay
Remark: another data set of the same source

| Binder | EC50, CreLuc reporter, 100% hP | EC50, CreLuc reporter, 0.5% hP |
| --- | --- | --- |
| B18 | 13.7 nM | – |
| B19 | 2.3 nM | 0.3 nM |
| B20 | 33.1 nM | 7 nM |
| B21 | 2.3 nM | – |

What follows are binders tested against T3, human GIP receptor (assay: cell-based or functional assay).

| Binder | EC50, CreLuc reporter, 0.5% hP | EC50, CreLuc reporter, 100% hP |
| --- | --- | --- |
| B18 | 0.5 nM | – |
| B19 | 0.2 nM | 5 nM |
| B20 | 0.8 nM | 14.8 nM |
| B21 | 0.5 nM | 10 nM |

These binders were tested against T4, human neuropeptide Y2 receptor (assay: cell-based or functional assay).

| Binder | EC50, CreLuc reporter, 0.5% hP | EC50, CreLuc reporter, 100% hP |
| --- | --- | --- |
| B18 | 20.1 nM | 46.4 nM |
| B19 | 11.1 nM | 86.3 nM |
| B20 | 16.3 nM | 44.1 nM |
| B21 | 75 nM | 789 nM |
